In article PMC8786652 (Cell reports, 2022):

Biological target: recombinant stabilized SARS-CoV-2 Spike ectodomain (S-6P, HexaPro Spike), his-tagged (SARS-CoV-2, Wuhan-Hu-1 (HexaPro …, stabilised))
Assay: SPR

B1: CV3-13 Fab (Fab, V domains shown)
VH: QVQLQQSGPGLVKPSQTLSLTCTVAGGSISSGTYYWSWIRQPAGKGLEWIGRIYTSGSANYNPSLKSRVTISVDTSKNQFSLRLSSVTAEDTAVYYCAREYSSSYYYFYYMDVWGKGTTVTVSS
VL: AIRMTQSPSSLSASVGDRVTITCQASQDISNYLNWYQQKPGKAPKLLIYVASNLETGVPSRFSGSGFGTDFTFTISSLQPEDIATYYCQQFDNLPYTFGQGTKLEIK
Kd: ~55 nM
